Experiments:
[1] = tested on: Suc-βAla-Ile-Ala-Leu-Dox
[2] = tested on: Suc-Ala-Leu-Ala-Leu-Dnr
[3] = tested on: Suc-Met-Ala-Leu-Dox
[4] = tested on: Suc-Ile-NmAla-Leu-Dox
[5] = tested on: Suc-Ile-Ala-Leu-Dox
[6] = tested on: Suc-Leu-Ala-Leu-Dox
[7] = tested on: Suc-Leu-Ala-Gly-Dox
[8] = tested on: Mcc-Pro-Leu-Gly-Pro-D-Lys(DNP)
[9] = tested on: Suc-βAla-Leu-Ala-Leu-Dox
[10] = tested on: Suc-Leu-NmAla-Leu-Dox
[11] = tested on: T1, Suc-βAla-Leu-Tyr-Leu-Dox
T1 sequence: XLYL

partially purified HeLa cell trouase (HeLa cell anion exchange fraction pool, F1), sequence (chain, as listed by the source): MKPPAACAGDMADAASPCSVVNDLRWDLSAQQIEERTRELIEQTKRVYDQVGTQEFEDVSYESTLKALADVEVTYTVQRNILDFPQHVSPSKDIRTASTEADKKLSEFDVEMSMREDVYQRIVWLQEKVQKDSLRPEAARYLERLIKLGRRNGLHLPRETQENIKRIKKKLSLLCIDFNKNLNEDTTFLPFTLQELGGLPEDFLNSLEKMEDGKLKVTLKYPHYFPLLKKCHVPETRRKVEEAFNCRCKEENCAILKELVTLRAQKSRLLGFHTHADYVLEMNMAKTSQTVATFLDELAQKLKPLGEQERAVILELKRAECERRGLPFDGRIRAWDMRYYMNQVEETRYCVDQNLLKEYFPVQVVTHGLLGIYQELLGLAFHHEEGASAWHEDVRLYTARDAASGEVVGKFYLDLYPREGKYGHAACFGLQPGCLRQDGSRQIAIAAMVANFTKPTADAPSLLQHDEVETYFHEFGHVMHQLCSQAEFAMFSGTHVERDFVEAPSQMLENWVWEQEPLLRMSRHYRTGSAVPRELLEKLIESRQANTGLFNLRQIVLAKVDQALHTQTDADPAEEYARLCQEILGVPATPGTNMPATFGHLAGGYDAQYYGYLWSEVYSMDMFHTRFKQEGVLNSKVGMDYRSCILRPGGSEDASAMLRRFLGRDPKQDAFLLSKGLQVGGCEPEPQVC

| Substance | rate of hydrolysis (Table 1, (F1)) [1] | extent of cleavage (HPLC), fold of that of Suc-βAla-Leu-Ala-Leu-Dnr [2] | rate of hydrolysis (Table 1, (F1)) [3] | rate of hydrolysis (Table 1, (F1)) [4] | rate of hydrolysis (Table 1, (F1)) [5] | rate of hydrolysis (Table 1, (F1)) [6] | rate of hydrolysis (Table 1, (F1)) [7] | rate of hydrolysis (Table 1, (F1)) [8] | rate of hydrolysis (Table 1, (F1)) [9] | rate of hydrolysis (Table 1, (F1)) [10] | % hydrolysis/10 hr (% hydrolysis/10 hr) [11] | Fraction hydrolyzed relative to standard [11] | % hydrolysis/10 hr (% hydrolysis/10 hr) [9] | Fraction hydrolyzed relative to standard [9] |
| --- | --- | --- | --- | --- | --- | --- | --- | --- | --- | --- | --- | --- | --- | --- |
| partially purified HeLa cell trouase (HeLa cell anion exchange fraction pool, F1) | 0.025 | only 0.6 fold that of the P2 β-alanine compound | 0.49 | 0 | 0 | 0.78 | 0.4 | 1.5 | 1 | 0 | – | – | – | – |
| purified Porcine Kidney CD10 | – | – | – | – | – | – | – | – | – | – | 0 | 0 | 10.9 | 1 |
